From paper PMC8102920

Test system: eIF3 complex (purified, 13 subunits a-m) (rabbit (reticulocyte lysate))
Assay: EMSA
Settings: EMSA: 25 mM Tris-HCl pH 7.5, 5 mM Mg(OAc)2, 70 mM KCl, 0.1 mM CaCl2, 0.1 mg/ml BSA, 2 mM TCEP, 30 min at 25 C, 0.7% agarose in TBE, 75 mM KCl, 4 C; for binding signal (% RNA shifted at high eIF3): high eIF3 (4-8 uM lanes quantified)

Row | Substance | binding signal (% RNA shifted at high eIF3) | Kd [µM]
1 | H4 1-137 (TWJ) | 28 | –
2 | H4 FL mRNA (1-375) | – | 4
3 | H4 241-375 (eIF3-BS) | 39 | –
4 | H4 137-241 (4E-SE) | 14 | –
